From paper PMC6742648

Biological target: stabilized pre-fusion RSV F glycoprotein (DS-Cav1) (respiratory syncytial virus (strain not stated)) (UniProt P03420)
Assay: crystal structure; RB1 Fab with DS-Cav1, complex purified by SEC; crystals in 100 mM Tris pH 8.5, 12% PEG 8000, 200 mM ammonium sulfate; 3.4 A

## stabilized pre-fusion RSV F glycoprotein (DS-Cav1) (from UniProt P03420 137-513) (natural protein)
  stoichiometry N: 3
